Measurements as given in patent publication US20110034670A1.

Assays:
Lck [1] = assay: steady-state kinetics, radioactive kinase assay
Src tyrosine kinase [2] = assay: steady-state kinetics, Ki against Km of ATP
Lck [3] = assay: steady-state kinetics, radioactive kinase assay; ATP-binding site of Lck
Src tyrosine kinase [4] = assay: radioactive Src kinase assay, catalytic activity inhibition
Lck [5] = assay: steady-state kinetics, ATP-binding site, after UV exposure
Src tyrosine kinase [6] = assay: steady-state kinetics, radioactive kinase assay; ATP-binding site of Src
Lck [7] = assay: steady-state kinetics, radioactive kinase assay; ATP-binding site
Src tyrosine kinase [8] = assay: as above

Chain of Lck (D3DPP8 whole entry): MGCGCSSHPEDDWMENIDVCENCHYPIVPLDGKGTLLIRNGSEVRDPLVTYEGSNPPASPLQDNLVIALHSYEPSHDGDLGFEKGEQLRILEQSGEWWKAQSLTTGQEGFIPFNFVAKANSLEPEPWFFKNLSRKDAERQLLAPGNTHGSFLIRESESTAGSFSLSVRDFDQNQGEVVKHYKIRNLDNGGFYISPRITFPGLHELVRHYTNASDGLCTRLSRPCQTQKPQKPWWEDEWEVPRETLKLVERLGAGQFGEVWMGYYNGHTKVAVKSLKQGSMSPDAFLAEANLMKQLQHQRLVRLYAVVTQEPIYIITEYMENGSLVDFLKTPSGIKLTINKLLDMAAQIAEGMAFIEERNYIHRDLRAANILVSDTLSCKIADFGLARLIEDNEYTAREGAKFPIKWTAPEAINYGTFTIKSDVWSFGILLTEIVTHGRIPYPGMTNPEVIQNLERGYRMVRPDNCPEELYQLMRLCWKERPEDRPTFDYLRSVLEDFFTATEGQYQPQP

Q: What does the source list for “ATP-1,13-Trioxa-Suc-pTyr-Glu-Glu-Ile-OH (5) (peptide)”?
A: fold better binding affinity than ATP (Lck [1]): 3.9 fold; fold more potent than ATP alone (Src tyrosine kinase [2]): 44 fold; Ki (Lck [3]): 25.3 µM

Q: For “H2N-1,13-Trioxa-Suc-pTyr-Glu-Glu-Ile-OH (16) (peptide)”, which Ki (Src tyrosine kinase [4]) is on record?
A: Its Ki is 608 µM.

Q: With “ATP-1,13-Trioxa-SA-pTyr-γ-p-azidoGlu-Glu-Ile-OH (7) (peptide)” as the substance, how does the Ki (Lck [5]) read?
A: The Ki was 29.8 µM.

Q: And the Ki (Src tyrosine kinase [6])?
A: Its Ki is 1.7 to 2.6 µM.

Q: What about the Ki (Lck [7]) of the same substance?
A: Its Ki is 30 µM.

Q: And the Ki (Src tyrosine kinase [8])?
A: Its Ki is 2.7 µM.
